The text below walks through data of patent publication US20250326826A1.

Common to all, as to assay: cell-based or functional assay
For assay [1], the target named is Human VEGF (dendritic cell assay) (human) (UniProt P15692).
Assay [2] deals with VEGF (soluble stimulus added to cell cultures).
For assay [3], the target named is bFGF (soluble stimulus added to cell cultures).

Human VEGF (dendritic cell assay) (human), sequence (P15692 other isoform, or with tags, fused parts or gaps limits assumed): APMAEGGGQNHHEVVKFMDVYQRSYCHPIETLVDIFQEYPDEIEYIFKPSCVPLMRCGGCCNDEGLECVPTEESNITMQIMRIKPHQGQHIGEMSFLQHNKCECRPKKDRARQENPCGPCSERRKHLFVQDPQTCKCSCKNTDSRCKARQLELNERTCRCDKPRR

As to Nb-Neg (VHH), in assay [1], the CD86 (MFI) on dendritic cells +VEGF +LPS, VHH 1 µg/mL stood at 1980 MFI; the CD86 (MFI) on dendritic cells +VEGF +LPS, VHH 5 µg/mL came to 2050 MFI; the CD86 (MFI) on dendritic cells +VEGF +LPS, VHH 10 µg/mL is 2000 MFI; the MHCII (MFI) on dendritic cells +VEGF +LPS, VHH 1 µg/mL came out at 5210 MFI. For the same substance, in assay [1], the MHCII (MFI) on dendritic cells +VEGF +LPS, VHH 5 µg/mL was 5140 MFI and the MHCII (MFI) on dendritic cells +VEGF +LPS, VHH 10 µg/mL is 4910 MFI. Moreover, in assay [2], the IC50, proliferation of HDMEC cells +VEGF (5 ng/ml) was > 6 µM; the PD1 expression (%) in CD8+ cells treated with VEGF, VHH 1 µg/mL was 68%; the PD1 expression (%) in CD8+ cells treated with VEGF, VHH 5 µg/mL worked out at 67%; the PD1 expression (%) in CD8+ cells treated with VEGF, VHH 10 µg/mL worked out at 65%. The same substance yielded an average of nodes of the HDMEC network on Matrigel, VEGF 100 ng/mL, VHH 150 nM (nodes per field) in assay [2] of 41. Besides, in assay [3], the IC50, bFGF-induced proliferation of 3T3A31 cells is > 250; the IC50, bFGF-induced proliferation of A549 cells is > 250; the IC50, bFGF-induced proliferation of B16F10 cells was > 250; the IC50, bFGF-induced proliferation of NIH3T3 cells is > 250. In assay [3], the IC50, proliferation of HDMEC cells +bFGF (10 ng/ml) is > 6 µM and the average of nodes of the HDMEC network on Matrigel, bFGF 10 ng/mL, VHH 150 nM (nodes per field) turned out to be 40.
